This assay addresses His-SP (RBD) (SARS-CoV-2, UniProt P0DTC2 319-541). Nature of the assay: SPR. In general terms: Surface plasmon resonance follows binding to a sensor surface in real time, without labels.

Usually Kd stands for the constant that tells how readily two partners part at equilibrium. A lower Kd goes with a tighter complex.

B1: His-CD147 (receptor)
chain: AAGTVFTTVEDLGSKILLTCSLNDSATEVTGHRWLKGGVVLKEDALPGQKTEFKVDSDDQWGEYSCVFLPEPMGTANIQLHGPPRVKAVKSSEHINEGETAMLVCKSESVPPVTDWAWYKITDSEDKALMNGSESRFFVSSSQGRSELHIENLNMEADPGQYRCNGTSSKGSDQAIITLRVRSHLAAL
Molecule B1 came in with a Kd of 185 nM.

Source of the values: doi:10.1101/2020.03.14.988345 (bioRxiv, 2020).
